Assay results from the supplement of paper PMC10724198.
± gives the standard deviation of the averaged measurements.

Tested on: Saccharomyces cerevisiae
Assay: protein stability index of tFT-peptide fusion (C-terminal peptide) (PSI (0-1 scale)); higher = more stable (slower turnover)
Settings: genetic background: wild type; temperature: 30 C
Description: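 Multiplexed protein stability (MPS) profiling in S. cerevisiae. Random 12-aa peptides (tFT-X12 library) are fused to the C-terminus of a sfGFP-mCherry tandem fluorescent timer, after mCherry and a GGGS linker. Cells are FACS-sorted into 8 mCherry/sfGFP bins and deep-sequenced. The protein stability index (PSI) is the read-weighted bin average, scaled from 0 (unstable) to 1 (stable). Only peptides with >10 reads are reported; cells were grown at 30 °C in SC-His with glucose.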
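Further: PSI is a weighted mean of sequencing reads over stability bins, variants kept only with over 10 reads, mCherry proximal and sfGFP distal, peptide attached via GGGS linker.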

Sequence	protein stability index
DSRTLDQNRAKF	0.824 ± 0.032
PLPTGTQPTRHR	0.669 ± 0.0079
PRNPLFSPPLPD	0.752 ± 0.0099
DCCAHLRARRLT	0.539 ± 0.035
CDFVFEFSCVQV	0.577 ± 0.025
HRNAFLLPPFPL	0.695 ± 0.014
GGVRGERSDLRT	0.712 ± 0.028
KRKRAVQYLMQP	0.615 ± 0.042
RGEVQPRRDPGA	0.662 ± 0.0095
GARVRIRVNDKK	0.677 ± 0.021
APPSPRPSRPSP	0.64 ± 0.029
SGPSWSGGGWGR	0.648 ± 0.021
HFPLSLSPPPPP	0.721 ± 0.032
RNTSQNRIDEKL	0.657 ± 0.014
IKKNHKENKRKE	0.666 ± 0.016
PTPHHPPPHPGP	0.726 ± 0.042
YFGGMGPRGRER	0.683 ± 0.016
YTPPNTLCPPVA	0.703 ± 0.24
TSRLPPSPPPPP	0.696 ± 0.14
SPSGCVGSSAQS	0.68061 ± 0.00045
SRLGLLTDGVYA	0.583 ± 0.025
FLSARVSSSLLL	0.639 ± 0.035
QVFTLFPASYPL	0.688 ± 0.057
LVLPTSRPRCFI	0.661 ± 0.027
LYPTISCSARDG	0.699 ± 0.013

Sequence	protein stability index
SCWVLPFHYGSG	0.714 ± 0.026
CEVGSKGCACRV	0.649 ± 0.025
PLLSPPSPLPPF	0.724 ± 0.022
RKKEKKERKERK	0.66 ± 0.069
PGRQSPPAPLYR	0.678 ± 0.0098
LVRMCLFNMHFS	0.698 ± 0.018
PLAWSAPCRPHT	0.73 ± 0.029
FPAPSPPFRLPP	0.748 ± 0.025
NGSIENIAKRKK	0.639 ± 0.077
LLWPSPAISLPT	0.722 ± 0.021
PFPPPPPPPMPT	0.691 ± 0.05
PFRLSPPLPPAP	0.743 ± 0.084
LPLIISTNYTPD	0.723 ± 0.11
KREQGPRPRACR	0.617 ± 0.036
LCLFPLVTPPPA	0.607 ± 0.029
RDCVVSCSCIHI	0.694 ± 0.057
YGSGSDGRGGPG	0.662 ± 0.0077
SVYVGAQAFCTC	0.612 ± 0.025
PSGAHLAHLLWL	0.719 ± 0.053
PPAFLSPPLDPL	0.6054 ± 0.0032
SFSRFFAIRPSF	0.723 ± 0.091
RSPINSRRGGVV	0.689 ± 0.0097
KKNKNLTYKRMI	0.716 ± 0.029
RVRGDRLGGRGT	0.706 ± 0.043
ICLMRETAGRED	0.757 ± 0.2

Sequence	protein stability index
VQSSLSDFYVSS	0.707 ± 0.061
SWVFSVDNGLVV	0.6133 ± 0.0012
CWAGKITAKIDV	0.666 ± 0.0085
STTILIKKKNDK	0.684 ± 0.041
ERGLATGRGGWV	0.733 ± 0.064
RGRGRVFVFGNW	0.726 ± 0.033
LASVSNFLASGK	0.72 ± 0.058
ARESGFGGVLEE	0.674 ± 0.028
PLSPPPPSPPFA	0.743 ± 0.013
VESRVVGGCGDW	0.625 ± 0.03
TYPMGVVLVESG	0.498 ± 0.011
MKTNFLDVKILM	0.7186 ± 0.0059
SIVSTPGATACL	0.67281 ± 0.00029
FLGGSRVGRGDG	0.6943 ± 0.0053
PPSVPTPCPVPI	0.696 ± 0.067
KKNTKKKQVNQE	0.747 ± 0.05
RHVSHASRLTPG	0.602 ± 0.11
IGSFTRTTKKFK	0.723 ± 0.0073
GGGVGVPDSASE	0.681 ± 0.047
VPSANAQTPSTC	0.717 ± 0.071
PTPLLTQHPRRP	0.72 ± 0.043
ASYGTRHSAPSV	0.678 ± 0.0076
PPSRPLSVLPPP	0.6863 ± 0.0055
GGGCGGACRPVG	0.692 ± 0.14
CALCRLGVAWVS	0.596 ± 0.021

Sequence	protein stability index
LRSPHPLPPPPP	0.732 ± 0.062
LRVKVPLLGLWA	0.557 ± 0.025
FRSFLSKLNGLF	0.636 ± 0.03
GEVAQDLGRDIL	0.7124 ± 0.0019
RIQMSGHTNLVG	0.686 ± 0.024
GLNGGRLEGERR	0.731 ± 0.11
GGGAGGVVGGIS	0.694 ± 0.027
SSPSPPSLLPSL	0.70987 ± 0.00056
PHLPYCSPSFPV	0.642 ± 0.059
PSAPRPSPPALP	0.855 ± 0.11
RVRGGGPRESGQ	0.728 ± 0.024
PPPVPPPPAHTP	0.681 ± 0.091
TRDVPVTPQWGY	0.671 ± 0.076
ERKKKNPSTTRR	0.684 ± 0.0086
GLGGGVGGGLVV	0.7045 ± 0.0046
SSDFVFGHRFCR	0.693 ± 0.015
LLPLLYKWLGLR	0.681 ± 0.025
FLLYGWTRPSCQ	0.735 ± 0.062
PHPRPPLPLSLP	0.697 ± 0.013
PRPPLPHQRPRS	0.746 ± 0.13
GKARLATGESAL	0.674 ± 0.031
PPPHSPSPTPHW	0.713 ± 0.016
PPFLPPSPPAPP	0.691 ± 0.031
IRDKTSIRKLEK	0.677 ± 0.058
AEYSTAYRLGIC	0.644 ± 0.1

Sequence	protein stability index
WMSFLARVVTFE	0.716 ± 0.025
PGRAARLLPRPL	0.712 ± 0.048
PSPPPLSPPTPR	0.667 ± 0.016
LPACVVVRYCRF	0.637 ± 0.12
FPRGPLPPAPSP	0.6556 ± 0.006
CGIAGVKSLGLC	0.717 ± 0.039
QEWAQYTHSEQP	0.735 ± 0.026
SDPASVIPMELE	0.673 ± 0.052
SSSLCSSSLGGS	0.605 ± 0.069
TPSLPAPGPPSP	0.735 ± 0.11
SLGWVRDRICSD	0.75 ± 0.17
KKKLEIKIEKRE	0.644 ± 0.042
KQSNRYPCIHRS	0.705 ± 0.048
PPLPLTAPHLCH	0.705 ± 0.03
ASNPGPLTPPQP	0.705 ± 0.0087
CGSTRGDCVGIW	0.705 ± 0.05
DSTGFRQNGQTD	0.73 ± 0.015
PPRPPAALPRLL	0.714 ± 0.07
GLVLPGHLTLAS	0.628 ± 0.08
SVPPPPLARALL	0.759 ± 0.057
ELGGRGPGGWVG	0.7149 ± 0.0041
KKQKRRKGEREK	0.637 ± 0.0023
EGKPALANSTVR	0.712 ± 0.052
GGGCGGGGSSCA	0.654 ± 0.069
PPLSFDTSRVAP	0.677 ± 0.049

Sequence	protein stability index
PPPHPPTPLPPT	0.701 ± 0.018
YPTQSPSPAPPT	0.644 ± 0.099
PPPPPPPPHSPP	0.672 ± 0.035
TLYHWELEPRNP	0.664 ± 0.013
RRTEGLATAGRV	0.666 ± 0.072
PLPPCPPTPCPS	0.648 ± 0.013
AAIQNRPIQSNP	0.672 ± 0.027
TYSCLKIVIPRT	0.664 ± 0.018
ARIALGLSALVL	0.641 ± 0.05
AFSASLAGSGRS	0.736 ± 0.046
GFLSSLRLLPPF	0.688 ± 0.029
VVDWRRAAKREG	0.685 ± 0.051
GGSGQGAGAVWG	0.63 ± 0.076
RWCRLGHRWRVV	0.563 ± 0.054
DVLGLSSRPFRV	0.665 ± 0.015
PLPPPDPPAPSL	0.716 ± 0.0085
RLLCSETPPTLA	0.665 ± 0.014
AGGGPDGFIRPM	0.701 ± 0.014
GYRRTGGLHGVV	0.716 ± 0.034
RRRNSTFTNLDT	0.6783 ± 0.0045
SPACFKIFCRCF	0.523 ± 0.046
ERPIRPQCVHRM	0.73 ± 0.015
IKSDCKDRRKRR	0.7233 ± 0.0072
GLGTRLSAVVLS	0.625 ± 0.039
KNSKKKKLKIER	0.804 ± 0.27

Sequence	protein stability index
RRRKPAEHTPPW	0.755 ± 0.1
SASSESTFLRAR	0.641 ± 0.012
LLFTFFFLLLFS	0.527 ± 0.23
GGFKGGKWVVEG	0.606 ± 0.021
SKIQDHLNTAPE	0.654 ± 0.058
GGRGPRGAANRG	0.634 ± 0.066
WVVSLTNSLAHV	0.581 ± 0.013
GLGLVSWEAGGV	0.68 ± 0.025
SYGTIGYLATSF	0.687 ± 0.075
FFFGPPPCRSFF	0.731 ± 0.019
EESAHPCRREVR	0.58988 ± 3.9e-05
CPGGRKPRQTAG	0.679 ± 0.14
PSNLNASLASRV	0.655 ± 0.015
TLDNEKKKKRNT	0.674 ± 0.022
RSAMRLFEPFSP	0.745 ± 0.19
GGVGGASMSGTP	0.674 ± 0.037
VQTHPFWFPTLL	0.573 ± 0.07
AWGWPWGHGFVV	0.738 ± 0.047
IGITWDVFLGLG	0.705 ± 0.03
VGGFVRGRVWCS	0.696 ± 0.012
CPGPPSLSPRPS	0.672 ± 0.029
KIKKKKYTKYTK	0.553 ± 0.052
CFLLCLSSSPVL	0.64 ± 0.029
PFPLPPLCPPAA	0.722 ± 0.064
CQERKLKNQPMV	0.607 ± 0.054

Sequence	protein stability index
PPPLSPPPPPRP	0.6643 ± 0.0031
TLYLCALPALSR	0.615 ± 0.0075
KRRSQKKKRIMD	0.6968 ± 0.0043
VGLTNSHTHVRR	0.767 ± 0.019
RRPPPPRGPSPP	0.713 ± 0.02
KIKEIIKIKKKR	0.678 ± 0.009
HKENTKEKKKRE	0.693 ± 0.043
PPLPPVPSPPPP	0.654 ± 0.025
PPLPPPPHPPFP	0.683 ± 0.07
SSTPGWVSCDKI	0.735 ± 0.029
FVGVGLVRVVGW	0.618 ± 0.018
LSPRSSGCPRWF	0.677 ± 0.019
LPVPPPHPPCPL	0.6497 ± 0.0036
GAPRESSEGRAQ	0.725 ± 0.095
PTTTPPPTPITG	0.76 ± 0.065
GAEHGVRTTAVT	0.658 ± 0.014
GVDDGGGCCRVR	0.773 ± 0.009
PSFFLLRVFVPS	0.524 ± 0.0061
GKRKGETGNRGG	0.741 ± 0.19
PPHCSSPTPARH	0.694 ± 0.028
PREFLVYDGVRV	0.6382 ± 0.0059
